From FireProtDB (doi:10.1002/pro.100)

B1: Prolactin, P01236 (parent)
chain: MNIKGSPWKGSLLLLLVSNLLLCQSVAPLPICPGGAARCQVTLRDLFDRAVVLSHYIHNLSSEMFSEFDKRYTHGRGFITKAINSCHTSSLATPEDKEQAQQMNQKDFLSLIVSILRSWNEPLYHLVTEVRGMQEAPEAILSKAVEIEEQTKRLLEGMELIVSQVHPETKENEIYPVWSGLPSLQMADEESRLSAYYNLLHCLRRDSHKIDNYLKLLKCRIIHNNNC

Variants of: B1
Details: Homo sapiens, 25 °C, Urea, Fluorescence, Potassium phosphate 25 mM, NaCl 25 mM, reversible: Yes, structure 2Q98, whole UniProt chain shown

Variant	ddG of mutation (higher = less stable) (pH 5.8)	denaturant m value (pH 5.8)	denaturant midpoint (higher = more stable) (pH 5.8)	unfolding free energy (pH 5.8)	ddG of mutation (higher = less stable) (pH 7.8)	denaturant m value (pH 7.8)	denaturant midpoint (higher = more stable) (pH 7.8)	unfolding free energy (pH 7.8)
MNIKGSPWKGSLLLLLVSNLLLCQSVAPLPICPGGAARCQVTLRDLFDRAVVLSHYIHNLSSEMFSEFDKRYTHGRGFITKAINSCHTSSLATPEDKEQAQQMNQKDFLSLIVSILRSWNEPLYHLVTEVRGMQEAPEAILSKAVEIEEQTKRLLEGMELIVSQVAPETKENEIYPVWSGLPSLQMADEESRLSAYYNLLHCLRRDSHKIDNYLKLLKCRIIHNNNC [H166A]	-8.54 kJ/mol	1.08 kcal/mol/M	5.87 M	26.5 kJ/mol	-2.43 kJ/mol	1.38 kcal/mol/M	6.38 M	36.7 kJ/mol
MNIKGSPWKGSLLLLLVSNLLLCQSVAPLPICPGGAARCQVTLRDLFDRAVVLSHYIHNLSSEMFSEFDKRYTHGRGFITKAINSCHTSSLATPEDKEQAQQMNQKDFLSLIVSILRSWNEPLYALVTEVRGMQEAPEAILSKAVEIEEQTKRLLEGMELIVSQVHPETKENEIYPVWSGLPSLQMADEESRLSAYYNLLHCLRRDSHKIDNYLKLLKCRIIHNNNC [H125A]	-4.48 kJ/mol	0.94 kcal/mol/M	5.72 M	22.5 kJ/mol	-1.38 kJ/mol	1.4 kcal/mol/M	6.1 M	35.7 kJ/mol
MNIKGSPWKGSLLLLLVSNLLLCQSVAPLPICPGGAARCQVTLRDLFDRAVVLSHYIHNLSSEMFSEFDKRYTHGRGFITKAINSCHTSSLATPEDKEQAQQMNQKDFLSLIVSILRSWNEPLYHLVTEVRGMQEAPEAILSKAVEIEEQTKRLLEGMELIVSQVHPETKENEIYPVWSGLPSLQMADEESRLSAYYNLLACLRRDSAKIDNYLKLLKCRIIHNNNC [H201A H208A]	-7.15 kJ/mol	0.93 kcal/mol/M	6.49 M	25.1 kJ/mol	1.72 kJ/mol	1.17 kcal/mol/M	6.66 M	32.6 kJ/mol
MNIKGSPWKGSLLLLLVSNLLLCQSVAPLPICPGGAARCQVTLRDLFDRAVVLSHYIANLSSEMFSEFDKRYTHGRGFITKAINSCHTSSLATPEDKEQAQQMNQKDFLSLIVSILRSWNEPLYHLVTEVRGMQEAPEAILSKAVEIEEQTKRLLEGMELIVSQVHPETKENEIYPVWSGLPSLQMADEESRLSAYYNLLACLRRDSAKIDNYLKLLKCRIIHNNNC [H58A H201A H208A]	-16.7 kJ/mol	1.22 kcal/mol/M	6.81 M	34.6 kJ/mol	-3.64 kJ/mol	1.31 kcal/mol/M	6.94 M	37.9 kJ/mol
MNIKGSPWKGSLLLLLVSNLLLCQSVAPLPICPGGAARCQVTLRDLFDRAVVLSHYIHNLSSEMFSEFDKRYTHGRGFITKAINSCATSSLATPEDKEQAQQMNQKDFLSLIVSILRSWNEPLYHLVTEVRGMQEAPEAILSKAVEIEEQTKRLLEGMELIVSQVHPETKENEIYPVWSGLPSLQMADEESRLSAYYNLLHCLRRDSHKIDNYLKLLKCRIIHNNNC [H87A]	-9.46 kJ/mol	1.13 kcal/mol/M	5.81 M	27.4 kJ/mol	0.0837 kJ/mol	1.35 kcal/mol/M	6.08 M	34.2 kJ/mol
MNIKGSPWKGSLLLLLVSNLLLCQSVAPLPICPGGAARCQVTLRDLFDRAVVLSAYIHNLSSEMFSEFDKRYTHGRGFITKAINSCHTSSLATPEDKEQAQQMNQKDFLSLIVSILRSWNEPLYHLVTEVRGMQEAPEAILSKAVEIEEQTKRLLEGMELIVSQVHPETKENEIYPVWSGLPSLQMADEESRLSAYYNLLHCLRRDSAKIDNYLKLLKCRIIHNNNC [H55A H208A]	-8.62 kJ/mol	1.05 kcal/mol/M	6.08 M	26.6 kJ/mol	-10.8 kJ/mol	1.62 kcal/mol/M	6.64 M	45.1 kJ/mol
MNIKGSPWKGSLLLLLVSNLLLCQSVAPLPICPGGAARCQVTLRDLFDRAVVLSAYIANLSSEMFSEFDKRYTHGRGFITKAINSCHTSSLATPEDKEQAQQMNQKDFLSLIVSILRSWNEPLYHLVTEVRGMQEAPEAILSKAVEIEEQTKRLLEGMELIVSQVHPETKENEIYPVWSGLPSLQMADEESRLSAYYNLLHCLRRDSAKIDNYLKLLKCRIIHNNNC [H55A H58A H208A]	-14.3 kJ/mol	1.16 kcal/mol/M	6.67 M	32.3 kJ/mol	-13 kJ/mol	1.59 kcal/mol/M	7.1 M	47.3 kJ/mol
MNIKGSPWKGSLLLLLVSNLLLCQSVAPLPICPGGAARCQVTLRDLFDRAVVLSHYIANLSSEMFSEFDKRYTHGRGFITKAINSCHTSSLATPEDKEQAQQMNQKDFLSLIVSILRSWNEPLYHLVTEVRGMQEAPEAILSKAVEIEEQTKRLLEGMELIVSQVHPETKENEIYPVWSGLPSLQMADEESRLSAYYNLLHCLRRDSHKIDNYLKLLKCRIIHNNNC [H58A]	-13 kJ/mol	1.2 kcal/mol/M	6.18 M	31 kJ/mol	-8.58 kJ/mol	1.51 kcal/mol/M	6.79 M	42.9 kJ/mol
MNIKGSPWKGSLLLLLVSNLLLCQSVAPLPICPGGAARCQVTLRDLFDRAVVLSHYIHNLSSEMFSEFDKRYTAGRGFITKAINSCHTSSLATPEDKEQAQQMNQKDFLSLIVSILRSWNEPLYHLVTEVRGMQEAPEAILSKAVEIEEQTKRLLEGMELIVSQVHPETKENEIYPVWSGLPSLQMADEESRLSAYYNLLHCLRRDSHKIDNYLKLLKCRIIHNNNC [H74A]	0.46 kJ/mol	0.81 kcal/mol/M	5.14 M	17.5 kJ/mol	-6.49 kJ/mol	1.58 kcal/mol/M	6.19 M	40.8 kJ/mol
MNIKGSPWKGSLLLLLVSNLLLCQSVAPLPICPGGAARCQVTLRDLFDRAVVLSAYIHNLSSEMFSEFDKRYTHGRGFITKAINSCHTSSLATPEDKEQAQQMNQKDFLSLIVSILRSWNEPLYHLVTEVRGMQEAPEAILSKAVEIEEQTKRLLEGMELIVSQVHPETKENEIYPVWSGLPSLQMADEESRLSAYYNLLHCLRRDSHKIDNYLKLLKCRIIHNNNC [H55A]	-0.377 kJ/mol	0.77 kcal/mol/M	5.71 M	18.4 kJ/mol				
MNIKGSPWKGSLLLLLVSNLLLCQSVAPLPICPGGAARCQVTLRDLFDRAVVLSHYIANLSSEMFSEFDKRYTHGRGFITKAINSCHTSSLATPEDKEQAQQMNQKDFLSLIVSILRSWNEPLYHLVTEVRGMQEAPEAILSKAVEIEEQTKRLLEGMELIVSQVHPETKENEIYPVWSGLPSLQMADEESRLSAYYNLLHCLRRDSAKIDNYLKLLKCRIIHNNNC [H58A H208A]	-12.8 kJ/mol	1.17 kcal/mol/M	6.31 M	30.8 kJ/mol				
MNIKGSPWKGSLLLLLVSNLLLCQSVAPLPICPGGAARCQVTLRDLFDRAVVLSHYIHNLSSEMFSEFDKRYTHGRGFITKAINSCHTSSLATPEDKEQAQQMNQKDFLSLIVSILRSWNEPLYHLVTEVRGMQEAPEAILSKAVEIEEQTKRLLEGMELIVSQVHPETKENEIYPVWSGLPSLQMADEESRLSAYYNLLACLRRDSHKIDNYLKLLKCRIIHNNNC [H201A]	-1 kJ/mol	0.76 kcal/mol/M	5.98 M	19 kJ/mol	1.46 kJ/mol	1.26 kcal/mol/M	6.22 M	32.8 kJ/mol
MNIKGSPWKGSLLLLLVSNLLLCQSVAPLPICPGGAARCQVTLRDLFDRAVVLSHYIANLSSEMFSEFDKRYTHGRGFITKAINSCHTSSLATPEDKEQAQQMNQKDFLSLIVSILRSWNEPLYHLVTEVRGMQEAPEAILSKAVEIEEQTKRLLEGMELIVSQVHPETKENEIYPVWSGLPSLQMADEESRLSAYYNLLACLRRDSHKIDNYLKLLKCRIIHNNNC [H58A H201A]	-15.5 kJ/mol	1.19 kcal/mol/M	6.7 M	33.5 kJ/mol	-6.4 kJ/mol	1.49 kcal/mol/M	6.53 M	40.7 kJ/mol
